From patent US20260166140A1, “Combinations Involving Epidermal Growth Factor Receptor Tyrosine Kinase Inhibitors For the Treatment of Cancer” (AstraZeneca AB, priority 2022, published 2026)

Legend:
[1] = target: T1, Cynomolgus monkey cMET (recombinant, soluble monomeric) (cynomolgus monkey, UniProt A0M8R7 25-932 (Papio anubis entry)); assay: ELISA: antigen coated at 1 ug/mL, antibody dilution series, goat anti-human Fab-HRP, A450; panel Cynomolgus cMET
T1 construct: also called cyno cMET

[2] = target: T2, Human cMET (recombinant, soluble monomeric) (human, UniProt P08581 25-932); assay: ELISA: antigen coated at 1 ug/mL, antibody dilution series, goat anti-human Fab-HRP, A450; panel Human cMET
T2 construct: in the HTRF assay it is called the human cMET receptor; also called His-tagged cMET antigen
T2 sequence (P08581 25-932): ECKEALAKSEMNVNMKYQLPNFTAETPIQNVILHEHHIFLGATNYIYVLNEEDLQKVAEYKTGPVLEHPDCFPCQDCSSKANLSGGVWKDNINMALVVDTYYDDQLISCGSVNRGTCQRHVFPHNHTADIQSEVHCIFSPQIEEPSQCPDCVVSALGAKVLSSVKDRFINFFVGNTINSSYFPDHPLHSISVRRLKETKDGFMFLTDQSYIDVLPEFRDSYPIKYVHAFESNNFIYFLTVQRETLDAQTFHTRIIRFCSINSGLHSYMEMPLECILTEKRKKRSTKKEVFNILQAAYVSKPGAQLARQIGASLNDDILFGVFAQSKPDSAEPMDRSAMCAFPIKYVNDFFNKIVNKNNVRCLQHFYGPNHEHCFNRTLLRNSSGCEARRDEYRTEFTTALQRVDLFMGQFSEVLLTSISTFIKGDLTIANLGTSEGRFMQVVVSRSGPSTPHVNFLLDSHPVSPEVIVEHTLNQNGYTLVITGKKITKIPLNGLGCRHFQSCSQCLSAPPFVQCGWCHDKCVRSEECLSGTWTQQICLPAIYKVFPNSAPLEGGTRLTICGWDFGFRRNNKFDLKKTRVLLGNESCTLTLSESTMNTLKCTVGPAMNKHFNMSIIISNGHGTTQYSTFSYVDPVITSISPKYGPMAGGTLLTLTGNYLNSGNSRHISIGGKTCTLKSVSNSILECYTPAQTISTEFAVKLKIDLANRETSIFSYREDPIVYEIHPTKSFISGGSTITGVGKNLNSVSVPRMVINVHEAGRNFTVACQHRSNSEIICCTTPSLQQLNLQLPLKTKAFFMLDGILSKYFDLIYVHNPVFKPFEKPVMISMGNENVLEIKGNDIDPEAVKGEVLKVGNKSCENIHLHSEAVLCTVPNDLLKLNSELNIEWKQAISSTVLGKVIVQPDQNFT

Ron (CD136) = Ron (CD136) (UniProt Q04912 25-957, limits assumed); assay: ELISA: antigen coated at 1 ug/mL, antibody dilution series, goat anti-human Fab-HRP, A450; panel Human Ron (CD136)
Semaphorin 3a = target: T3, Semaphorin 3a (UniProt Q14563 21-771, limits assumed); assay: ELISA: antigen coated at 1 ug/mL, antibody dilution series, goat anti-human Fab-HRP, A450; panel Human Sema3a
T3 construct: also called Sema 3a
T3 sequence (looked up): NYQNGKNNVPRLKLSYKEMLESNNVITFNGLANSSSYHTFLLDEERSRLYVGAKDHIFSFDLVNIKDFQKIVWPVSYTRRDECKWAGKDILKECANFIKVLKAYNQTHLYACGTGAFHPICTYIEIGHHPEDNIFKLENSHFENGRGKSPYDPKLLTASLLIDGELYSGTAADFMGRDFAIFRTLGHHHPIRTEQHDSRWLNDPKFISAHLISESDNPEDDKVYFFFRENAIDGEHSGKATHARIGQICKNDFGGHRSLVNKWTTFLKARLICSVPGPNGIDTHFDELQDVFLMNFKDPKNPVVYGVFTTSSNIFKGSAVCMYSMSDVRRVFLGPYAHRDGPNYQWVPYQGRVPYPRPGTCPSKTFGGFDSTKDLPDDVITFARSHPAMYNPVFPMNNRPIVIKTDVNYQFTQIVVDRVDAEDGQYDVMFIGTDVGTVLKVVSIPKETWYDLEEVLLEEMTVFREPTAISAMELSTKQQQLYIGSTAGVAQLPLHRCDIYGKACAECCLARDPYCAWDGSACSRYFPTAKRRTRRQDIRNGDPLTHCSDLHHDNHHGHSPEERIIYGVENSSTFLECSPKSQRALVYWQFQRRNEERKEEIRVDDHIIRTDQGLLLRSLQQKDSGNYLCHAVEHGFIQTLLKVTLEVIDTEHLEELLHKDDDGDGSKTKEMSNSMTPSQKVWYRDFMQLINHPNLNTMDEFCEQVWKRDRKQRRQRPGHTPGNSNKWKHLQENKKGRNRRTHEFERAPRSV

Mouse cMET (recombinant) = Mouse cMET (recombinant) (mouse, UniProt P16056 25-929, limits assumed); assay: ELISA: antigen coated at 1 ug/mL, antibody dilution series, goat anti-human Fab-HRP, A450; panel Mouse cMET
Mouse cMET (recombinant), sequence (P16056 25-929 limits assumed): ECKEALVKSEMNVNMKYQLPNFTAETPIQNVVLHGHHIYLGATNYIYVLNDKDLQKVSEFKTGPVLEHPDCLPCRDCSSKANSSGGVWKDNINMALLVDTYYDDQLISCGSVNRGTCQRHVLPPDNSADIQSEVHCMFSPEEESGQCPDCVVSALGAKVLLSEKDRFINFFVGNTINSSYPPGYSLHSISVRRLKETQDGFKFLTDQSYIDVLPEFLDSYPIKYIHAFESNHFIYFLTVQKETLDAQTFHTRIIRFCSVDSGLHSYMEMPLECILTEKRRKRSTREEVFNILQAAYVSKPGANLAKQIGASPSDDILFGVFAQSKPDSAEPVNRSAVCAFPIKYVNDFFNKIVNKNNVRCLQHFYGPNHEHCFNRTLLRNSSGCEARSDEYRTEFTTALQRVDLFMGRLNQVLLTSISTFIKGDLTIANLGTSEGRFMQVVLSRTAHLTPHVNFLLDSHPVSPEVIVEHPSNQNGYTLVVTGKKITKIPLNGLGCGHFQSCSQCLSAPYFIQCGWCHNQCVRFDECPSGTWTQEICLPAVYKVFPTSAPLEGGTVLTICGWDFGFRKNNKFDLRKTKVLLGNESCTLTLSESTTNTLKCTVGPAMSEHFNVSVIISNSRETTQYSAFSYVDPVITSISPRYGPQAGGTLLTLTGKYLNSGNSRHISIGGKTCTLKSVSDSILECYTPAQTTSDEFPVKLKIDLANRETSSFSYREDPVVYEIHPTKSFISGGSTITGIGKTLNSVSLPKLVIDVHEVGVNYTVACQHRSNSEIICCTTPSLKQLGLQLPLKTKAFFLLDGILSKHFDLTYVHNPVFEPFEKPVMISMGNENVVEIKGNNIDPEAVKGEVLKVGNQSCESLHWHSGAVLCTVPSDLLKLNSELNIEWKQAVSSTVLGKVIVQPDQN

HER4 = target: T4, HER4 (UniProt Q15303 26-649, limits assumed); assay: ELISA: antigen coated at 1 ug/mL, antibody dilution series, goat anti-human Fab-HRP, A450; panel Human HER4
T4 construct: also called EGFR HER family protein HER4
T4 sequence (looked up): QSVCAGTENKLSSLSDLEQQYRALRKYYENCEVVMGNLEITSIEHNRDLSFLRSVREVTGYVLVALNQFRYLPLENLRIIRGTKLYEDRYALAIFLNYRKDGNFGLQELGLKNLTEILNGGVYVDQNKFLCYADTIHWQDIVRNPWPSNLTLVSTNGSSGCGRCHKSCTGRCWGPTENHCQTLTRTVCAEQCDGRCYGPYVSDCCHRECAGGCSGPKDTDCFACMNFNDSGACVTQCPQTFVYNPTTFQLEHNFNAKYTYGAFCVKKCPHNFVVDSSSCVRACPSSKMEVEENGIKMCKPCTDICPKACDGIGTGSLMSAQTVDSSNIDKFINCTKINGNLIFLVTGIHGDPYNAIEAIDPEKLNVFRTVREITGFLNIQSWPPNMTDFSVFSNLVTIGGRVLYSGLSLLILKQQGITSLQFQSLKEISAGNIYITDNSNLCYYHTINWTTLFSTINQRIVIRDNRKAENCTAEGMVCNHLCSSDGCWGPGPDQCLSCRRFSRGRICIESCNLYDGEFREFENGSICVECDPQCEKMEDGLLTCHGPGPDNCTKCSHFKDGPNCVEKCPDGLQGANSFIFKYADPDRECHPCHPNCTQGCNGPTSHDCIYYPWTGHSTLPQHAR

HER2 = target: T5, HER2 (UniProt P04626 23-652, limits assumed); assay: ELISA: antigen coated at 1 ug/mL, antibody dilution series, goat anti-human Fab-HRP, A450; panel Human HER2
T5 construct: also called EGFR HER family protein HER2

[3] = target: T6, Human EGFR (recombinant, soluble monomeric) (human, UniProt P00533 25-645); assay: SPR, Biacore T200, antibody captured on anti-human IgG, soluble monomeric antigen as analyte, 25 C
T6 construct: also called EGFR antigen

[4] = target: T7, Cynomolgus monkey EGFR (recombinant, soluble monomeric) (cynomolgus monkey, UniProt P55245 25-645 (rhesus entry)); assay: as above
T7 construct: also called cyno EGFR

[5] = target: T8, Mouse EGFR (recombinant, soluble monomeric) (mouse, UniProt Q01279 25-647); assay: as above
T8 construct: also called murine EGFR

HER3 = target: T9, HER3 (UniProt P21860 20-643, limits assumed); assay: ELISA: antigen coated at 1 ug/mL, antibody dilution series, goat anti-human Fab-HRP, A450; panel Human HER3
T9 construct: also called EGFR HER family protein HER3

[6] = target: T6, Human EGFR (recombinant, soluble …); assay: Octet biolayer interferometry, antigen capture format: His-tagged human cMET on NI-NTA sensors, then antibody (66 nM), then human EGFR (500 nM)
[7] = target: T8, Mouse EGFR (recombinant, soluble …); assay: ELISA: antigen coated at 1 ug/mL, antibody dilution series, goat anti-human Fab-HRP, A450; panel Mouse EGFR
[8] = target: T1, Cynomolgus monkey cMET (recombinant, …); assay: SPR, Biacore T200, antibody captured on anti-human IgG, soluble monomeric antigen as analyte, 25 C
[9] = target: T2, Human cMET (recombinant, soluble …); assay: as above
[10] = target: T7, Cynomolgus monkey EGFR (recombinant, …); assay: ELISA: antigen coated at 1 ug/mL, antibody dilution series, goat anti-human Fab-HRP, A450; panel Cynomolgus EGFR

T1 sequence (A0M8R7 25-932 S170N/I621T): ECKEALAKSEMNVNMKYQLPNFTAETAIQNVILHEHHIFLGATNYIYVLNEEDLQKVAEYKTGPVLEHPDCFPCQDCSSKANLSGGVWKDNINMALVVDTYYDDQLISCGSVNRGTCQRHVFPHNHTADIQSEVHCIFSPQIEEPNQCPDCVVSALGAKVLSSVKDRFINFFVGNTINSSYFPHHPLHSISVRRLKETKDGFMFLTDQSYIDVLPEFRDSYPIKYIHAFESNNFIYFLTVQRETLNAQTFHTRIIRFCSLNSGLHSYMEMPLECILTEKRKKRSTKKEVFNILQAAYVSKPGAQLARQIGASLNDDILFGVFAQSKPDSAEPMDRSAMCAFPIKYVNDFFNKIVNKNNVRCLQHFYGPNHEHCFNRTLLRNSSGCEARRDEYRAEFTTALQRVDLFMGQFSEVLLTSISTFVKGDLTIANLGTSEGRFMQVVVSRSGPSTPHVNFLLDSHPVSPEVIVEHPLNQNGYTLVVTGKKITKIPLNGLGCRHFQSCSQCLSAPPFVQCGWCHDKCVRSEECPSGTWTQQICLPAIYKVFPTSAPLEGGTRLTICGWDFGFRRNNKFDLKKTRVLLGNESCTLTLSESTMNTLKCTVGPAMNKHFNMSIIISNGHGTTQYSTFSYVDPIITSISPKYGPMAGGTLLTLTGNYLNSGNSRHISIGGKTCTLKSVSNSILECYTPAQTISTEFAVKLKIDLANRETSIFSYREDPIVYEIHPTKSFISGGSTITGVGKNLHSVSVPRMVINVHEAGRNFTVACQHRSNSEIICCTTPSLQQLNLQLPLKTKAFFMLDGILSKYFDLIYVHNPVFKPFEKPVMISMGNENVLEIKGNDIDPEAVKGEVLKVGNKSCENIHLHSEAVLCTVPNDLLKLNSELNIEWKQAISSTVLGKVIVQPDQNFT

B1: RAA22 IgG (antibody, V domains shown)
VH: QVQLVQSGAEVKKPGSSVKVSCKASGGTFSDNDFSWVRQAPGQGLEWMGAIVAVFRTETYAQKFQDRVKITADISTRTTYMELSSLRSEDTAVYYCARRLMSAISGPGAPLLMWGQGTLVTVSS
VL: QSALTQPRSVSGSPGQSVTISCTGTSSDVGGYNYVSWYQQHPGKAPKLMIYDVSKRPSGVPDRFSGSKSGNTASLTISGLQAEDEADYYCSSYTSSDTLEIFGGGTKLTVL
- binding result [1]: no binding (tested: 10 ug/ml)
- binding result [2]: no binding (tested: 10 ug/ml)
- binding result (Ron (CD136)): no binding (tested: 10 ug/ml)
- binding result (Semaphorin 3a): no binding (tested: 10 ug/ml)
- binding result (Mouse cMET (recombinant)): no binding (tested: 10 ug/ml)
- binding result (HER4): no binding (tested: 10 ug/ml)
- binding result (HER2): no binding (tested: 10 ug/ml)
- Kd [3]: 46.6 nM
- koff [3]: 0.00206 s⁻¹
- kon [3]: 44100 M⁻¹ s⁻¹
- Kd [4]: 170 nM
- koff [4]: 0.00601 s⁻¹
- kon [4]: 35400 M⁻¹ s⁻¹
- Kd [5]: 488 nM
- koff [5]: 0.019 s⁻¹
- kon [5]: 40300 M⁻¹ s⁻¹
- binding result (HER3): no binding (tested: 10 ug/ml)

B2: B09-57 IgG (antibody, V domains shown)
VH: QVQLVQSGAEVKKPGASVKVSCKASGYTFTDYYIHWVRQATGQGLEWMGWMNPNSGNTGYAQKFQGRVTMTRDTSISTAYMELSSLRSEDTAVYYCARGQGYTHSWGQGTMVTVSS
VL: DIQMTQSPSTLSASVGDRVTITCRASEGIYHWLAWYQQKPGKAPKLLIYKASSLASGVPSRFSGSGSGTEFTLTISSLQPDDFATYYCQQYSNYPPTFGGGTKLEIK
notes: also called B09-GL; cMET IgG B09
- binding result [6]: no binding (tested: 500 nM EGFR)
- binding result (Ron (CD136)): no binding (tested: 10 ug/ml)
- binding result (Semaphorin 3a): no binding (tested: 10 ug/ml)
- binding result [7]: no binding (tested: 10 ug/ml)
- binding result (Mouse cMET (recombinant)): no binding (tested: 10 ug/ml)
- binding result (HER4): no binding (tested: 10 ug/ml)
- binding result (HER2): no binding (tested: 10 ug/ml)
- Kd [8]: 1.9 nM
- koff [8]: 0.00194 s⁻¹
- kon [8]: 1.04e+06 M⁻¹ s⁻¹
- Kd [9]: 1.6 nM
- koff [9]: 0.000882 s⁻¹
- kon [9]: 563000 M⁻¹ s⁻¹
- binding result [10]: no binding (tested: 10 ug/ml)
- binding result (HER3): no binding (tested: 10 ug/ml)
